Tested on: Escherichia coli TOP10
Experiment: shrunken log2 fold change of peptide-encoding DNA abundance (4.5 h post-induction vs induction); higher = less antimicrobial activity (less host growth inhibition)
Settings: time post-induction: 4.5 h; library: site-saturation at positions 5, 18, 19, 20
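Also: peptides expressed intracellularly from a pBAD plasmid library in pooled LB shake-flask culture, induced with 0.3% L-arabinose, DNA abundance read by NGS, three biological replicates, DESeq2 with apeglm shrinkage.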

Sequence	shrunken log2 fold change
RRIRLRPPRLPRPRPRPQLVPRP	0.144
RRIRMRPPRLPRPRPRPTSPPRP	0.278
RRIRDRPPRLPRPRPRPDATPRP	0.0857
RRIRLRPPRLPRPRPRPWVVPRP	0.0937
RRIRERPPRLPRPRPRPHYYPRP	-0.83
RRIRGRPPRLPRPRPRPTLLPRP	0.884
RRIRGRPPRLPRPRPRPQPAPRP	0.833
RRIRFRPPRLPRPRPRPEHFPRP	-0.213
RRIRSRPPRLPRPRPRPSAAPRP	0.614
RRIRIRPPRLPRPRPRPDGVPRP	-0.0166
RRIRKRPPRLPRPRPRPQAHPRP	0.266
RRIRKRPPRLPRPRPRPGRMPRP	0.554
RRIRKRPPRLPRPRPRPVVVPRP	0.212
RRIRGRPPRLPRPRPRPEFPPRP	0.482
RRIRDRPPRLPRPRPRPKADPRP	-0.0266
RRIRTRPPRLPRPRPRPNIQPRP	-0.586
RRIRLRPPRLPRPRPRPCILPRP	-0.411
RRIRGRPPRLPRPRPRPNQQPRP	0.0317
RRIRCRPPRLPRPRPRPYCVPRP	-0.517
RRIRTRPPRLPRPRPRPPEIPRP	0.0182
RRIRPRPPRLPRPRPRPLYRPRP	-0.181
RRIRTRPPRLPRPRPRPNGCPRP	0.0101
RRIRYRPPRLPRPRPRPSLGPRP	-0.297
RRIRSRPPRLPRPRPRPAMYPRP	-0.184
RRIRMRPPRLPRPRPRPAFEPRP	0.763

Sequence	shrunken log2 fold change
RRIRIRPPRLPRPRPRPRAKPRP	0.139
RRIRWRPPRLPRPRPRPEIHPRP	-0.0167
RRIRWRPPRLPRPRPRPPPKPRP	0.945
RRIRRRPPRLPRPRPRPVQYPRP	-0.00909
RRIRARPPRLPRPRPRPGGSPRP	0.535
RRIRARPPRLPRPRPRPCEIPRP	0.196
RRIRRRPPRLPRPRPRPCMQPRP	0.23
RRIRGRPPRLPRPRPRPIKRPRP	0.171
RRIRHRPPRLPRPRPRPSCNPRP	-0.599
RRIRARPPRLPRPRPRPRSGPRP	0.537
RRIRARPPRLPRPRPRPPIVPRP	-0.0791
RRIRYRPPRLPRPRPRPYDKPRP	-1.24
RRIRSRPPRLPRPRPRPALQPRP	0.441
RRIRKRPPRLPRPRPRPWHFPRP	0.169
RRIRFRPPRLPRPRPRPYPMPRP	-0.119
RRIRDRPPRLPRPRPRPNYIPRP	-1.03
RRIRWRPPRLPRPRPRPIAQPRP	0.582
RRIRSRPPRLPRPRPRPRKYPRP	-0.312
RRIRHRPPRLPRPRPRPSNRPRP	-0.771
RRIRHRPPRLPRPRPRPKMKPRP	-0.232
RRIRYRPPRLPRPRPRPYRPPRP	-0.0134
RRIRKRPPRLPRPRPRPATAPRP	0.18
RRIRGRPPRLPRPRPRPKQFPRP	0.566
RRIRQRPPRLPRPRPRPNDMPRP	-0.296
RRIRNRPPRLPRPRPRPYHAPRP	-0.0081

Sequence	shrunken log2 fold change
RRIRARPPRLPRPRPRPFNIPRP	-0.307
RRIRWRPPRLPRPRPRPQDMPRP	-0.199
RRIRDRPPRLPRPRPRPALTPRP	0.468
RRIRNRPPRLPRPRPRPVIMPRP	0.178
RRIRHRPPRLPRPRPRPPQPPRP	0.216
RRIRHRPPRLPRPRPRPVSYPRP	-0.00133
RRIRPRPPRLPRPRPRPARVPRP	0.295
RRIRTRPPRLPRPRPRPFHAPRP	-0.0296
RRIRSRPPRLPRPRPRPMWEPRP	0.0252
RRIRYRPPRLPRPRPRPFPDPRP	-0.164
RRIRYRPPRLPRPRPRPDRKPRP	-0.157
RRIRWRPPRLPRPRPRPYFLPRP	-0.757
RRIRFRPPRLPRPRPRPYAKPRP	-0.552
RRIRPRPPRLPRPRPRPLECPRP	-0.000998
RRIRCRPPRLPRPRPRPRTHPRP	-0.168
RRIRARPPRLPRPRPRPYCLPRP	-0.729
RRIRSRPPRLPRPRPRPCHEPRP	0.0697
RRIRHRPPRLPRPRPRPCTFPRP	-0.456
RRIRWRPPRLPRPRPRPFMGPRP	0.0373
RRIRTRPPRLPRPRPRPCYDPRP	-0.127
RRIRFRPPRLPRPRPRPEISPRP	-0.048
RRIRPRPPRLPRPRPRPCWFPRP	-0.0933
RRIRSRPPRLPRPRPRPTRYPRP	-0.198
RRIRFRPPRLPRPRPRPAYKPRP	-0.314
RRIRSRPPRLPRPRPRPMWMPRP	-0.344

Sequence	shrunken log2 fold change
RRIRERPPRLPRPRPRPCWPPRP	0.0214
RRIRQRPPRLPRPRPRPHKAPRP	-0.0398
RRIRTRPPRLPRPRPRPSYGPRP	-0.259
RRIRDRPPRLPRPRPRPGVMPRP	0.521
RRIRFRPPRLPRPRPRPDYLPRP	-0.159
RRIRDRPPRLPRPRPRPEMCPRP	0.0536
RRIRFRPPRLPRPRPRPGRGPRP	0.607
RRIRVRPPRLPRPRPRPMYSPRP	-0.242
RRIRNRPPRLPRPRPRPKAIPRP	-0.0372
RRIRVRPPRLPRPRPRPQSVPRP	-0.0666
RRIRVRPPRLPRPRPRPMLSPRP	-0.0455
RRIRARPPRLPRPRPRPPQPPRP	1.03
RRIRVRPPRLPRPRPRPPYAPRP	-0.00506
RRIRQRPPRLPRPRPRPCDYPRP	0.07
RRIRNRPPRLPRPRPRPGFKPRP	-0.171
RRIRTRPPRLPRPRPRPNFWPRP	0.31
RRIRPRPPRLPRPRPRPADPPRP	0.558
RRIRWRPPRLPRPRPRPTELPRP	0.135
RRIRARPPRLPRPRPRPMFTPRP	-0.0981
RRIRARPPRLPRPRPRPWMHPRP	0.026
RRIRCRPPRLPRPRPRPNVMPRP	-0.337
RRIRIRPPRLPRPRPRPCKAPRP	-0.181
RRIRLRPPRLPRPRPRPYYNPRP	-1.18
RRIRHRPPRLPRPRPRPAMIPRP	-0.0435
RRIRYRPPRLPRPRPRPAYNPRP	-0.638

Sequence	shrunken log2 fold change
RRIRNRPPRLPRPRPRPWYSPRP	-2.32
RRIRYRPPRLPRPRPRPPTPPRP	0.104
RRIRNRPPRLPRPRPRPCFNPRP	0.0695
RRIRGRPPRLPRPRPRPREPPRP	0.812
RRIRKRPPRLPRPRPRPRTCPRP	-0.202
RRIRPRPPRLPRPRPRPHVQPRP	-0.0151
RRIRWRPPRLPRPRPRPMLRPRP	0.0624
RRIRVRPPRLPRPRPRPYKYPRP	-0.835
RRIRQRPPRLPRPRPRPHGHPRP	-0.113
RRIRQRPPRLPRPRPRPGVIPRP	0.0679
RRIRDRPPRLPRPRPRPELIPRP	0.0219
RRIRIRPPRLPRPRPRPFCHPRP	-0.302
RRIRIRPPRLPRPRPRPKIFPRP	0.27
RRIRERPPRLPRPRPRPHWAPRP	0.225
RRIRERPPRLPRPRPRPFSNPRP	-0.441
RRIRPRPPRLPRPRPRPQFGPRP	-0.0476
RRIRMRPPRLPRPRPRPMWDPRP	0.128
RRIRYRPPRLPRPRPRPRQPPRP	0.137
RRIRTRPPRLPRPRPRPDPCPRP	0.0297
RRIRYRPPRLPRPRPRPYKKPRP	-0.00195
RRIRIRPPRLPRPRPRPLEHPRP	-0.105
RRIRYRPPRLPRPRPRPGFTPRP	-0.149
RRIRNRPPRLPRPRPRPDHKPRP	-0.398
RRIRLRPPRLPRPRPRPRFSPRP	0.0406
RRIRKRPPRLPRPRPRPNFDPRP	0.367

— the supplement of paper PMC9112550, “Optimization of the antimicrobial peptide Bac7 by deep mutational scanning” (BMC Biology, 2022)
